Data on 31 molecules can be found in US20220040297A1 (Chugai, published 2022).

Residue numbers refer to the chain shown, from its start.

B1: GLS3000 H27dN (antibody, name in Kabat numbering, V domains shown)
VH: QVQLVESGGGVVQPGRSLRLSCAASGFTFSNAWMHWVRQAPGKGLEWVAQIKAKSNNYATYYAESVKGRFTISRDDSKNSLYLQMNSLKTEDTAVYYCRYVHYGAYYGVDAWGQGTTVTVSS
VL: DIVMTQSPLSLPVTPGEPASISCRSSQSLVNSNRNTYLHWYQQKPGQAPRLLIYKVSNRFSGVPDRFSGSGSGTDFTLKISRVEAEDVGVYYCGQGTQVPYTFGQGTKLEIK
notes: one-arm format as m2
B2: GLS3000 H34I (antibody, name in Kabat numbering, V domains shown)
VH: B1 VH
VL: B1 VL with N31H, H39I
notes: one-arm format as m2
B3: GLS3000 H34W (antibody, name in Kabat numbering, V domains shown)
VH: B1 VH
VL: B1 VL with N31H, H39W
notes: one-arm format as m2
B4: GLS3000 H34S (antibody, name in Kabat numbering, V domains shown)
VH: B1 VH
VL: B1 VL with N31H, H39S
notes: one-arm format as m2
B5: GLS3000 H34E (antibody, name in Kabat numbering, V domains shown)
VH: B1 VH
VL: B1 VL with N31H, H39E
notes: one-arm format as m2
B6: GLS3000 H34N (antibody, name in Kabat numbering, V domains shown)
VH: B1 VH
VL: B1 VL with N31H, H39N
notes: one-arm format as m2
B7: GLS3000 H34T (antibody, name in Kabat numbering, V domains shown)
VH: B1 VH
VL: B1 VL with N31H, H39T
notes: one-arm format as m2
B8: GLS3000 H34G (antibody, name in Kabat numbering, V domains shown)
VH: B1 VH
VL: B1 VL with N31H, H39G
notes: one-arm format as m2
B9: GLS3000 H27dR (antibody, name in Kabat numbering, V domains shown)
VH: B1 VH
VL: B1 VL with N31R
notes: one-arm format as m2
B10: GLS3000 H27dS (antibody, name in Kabat numbering, V domains shown)
VH: B1 VH
VL: B1 VL with N31S
notes: one-arm format as m2
B11: GLS3000 H34R (antibody, name in Kabat numbering, V domains shown)
VH: B1 VH
VL: B1 VL with N31H, H39R
notes: one-arm format as m2
B12: GLS3000 H34L (antibody, name in Kabat numbering, V domains shown)
VH: B1 VH
VL: B1 VL with N31H, H39L
notes: one-arm format as m2
B13: GLS3000 H27dY (antibody, name in Kabat numbering, V domains shown)
VH: B1 VH
VL: B1 VL with N31Y
notes: one-arm format as m2
B14: GLS3000 H27dQ (antibody, name in Kabat numbering, V domains shown)
VH: B1 VH
VL: B1 VL with N31Q
notes: one-arm format as m2
B15: GLS3000 H27dT (antibody, name in Kabat numbering, V domains shown)
VH: B1 VH
VL: B1 VL with N31T
notes: one-arm format as m2
B16: GLS3000 H34D (antibody, name in Kabat numbering, V domains shown)
VH: B1 VH
VL: B1 VL with N31H, H39D
notes: one-arm format as m2
B17: GLS3000 H34M (antibody, name in Kabat numbering, V domains shown)
VH: B1 VH
VL: B1 VL with N31H, H39M
notes: one-arm format as m2
B18: GLS3000 H34A (antibody, name in Kabat numbering, V domains shown)
VH: B1 VH
VL: B1 VL with N31H, H39A
notes: one-arm format as m2
B19: GLS3000 H34V (antibody, name in Kabat numbering, V domains shown)
VH: B1 VH
VL: B1 VL with N31H, H39V
notes: one-arm format as m2
B20: GLS3000 K50A (antibody, name in Kabat numbering, V domains shown)
VH: B1 VH
VL: B1 VL with N31H, K55A
notes: one-arm format as m2
B21: GLS3000 K50D (antibody, name in Kabat numbering, V domains shown)
VH: B1 VH
VL: B1 VL with N31H, K55D
notes: one-arm format as m2
B22: GLS3000 H27dP (antibody, name in Kabat numbering, V domains shown)
VH: B1 VH
VL: B1 VL with N31P
notes: one-arm format as m2
B23: GLS3000 K50G (antibody, name in Kabat numbering, V domains shown)
VH: B1 VH
VL: B1 VL with N31H, K55G
notes: one-arm format as m2
B24: GLS3000 H27dW (antibody, name in Kabat numbering, V domains shown)
VH: B1 VH
VL: B1 VL with N31W
notes: one-arm format as m2
B25: GLS3000 H27dV (antibody, name in Kabat numbering, V domains shown)
VH: B1 VH
VL: B1 VL with N31V
notes: one-arm format as m2
B26: GLS3000 K50E (antibody, name in Kabat numbering, V domains shown)
VH: B1 VH
VL: B1 VL with N31H, K55E
notes: one-arm format as m2
B27: GLS3000 H34K (antibody, name in Kabat numbering, V domains shown)
VH: B1 VH
VL: B1 VL with N31H, H39K
notes: one-arm format as m2
B28: GLS3000 H34Y (antibody, name in Kabat numbering, V domains shown)
VH: B1 VH
VL: B1 VL with N31H, H39Y
notes: one-arm format as m2
B29: GLS3000 H34Q (antibody, name in Kabat numbering, V domains shown)
VH: B1 VH
VL: B1 VL with N31H, H39Q
notes: one-arm format as m2
B30: GLS3000 H34F (antibody, name in Kabat numbering, V domains shown)
VH: B1 VH
VL: B1 VL with N31H, H39F
notes: one-arm format as m2
B31: GLS3000 H34P (antibody, name in Kabat numbering, V domains shown)
VH: B1 VH
VL: B1 VL with N31H, H39P
notes: one-arm format as m2
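Note: biacore T200 surface plasmon resonance at 25 °C, antibody variants flowed as analytes over amine-coupled CD3ε homodimer on a CM4 chip, variant binding amount divided by that of GLS3000 antibody.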

In this test the target is CD3ε homodimer protein (human, UniProt P07766 23-126, limits assumed). The test is described as follows: SPR, immobilized CD3ε homodimer. (In general: SPR reads the build-up and loss of mass on a sensor chip optically.)
CD3ε homodimer protein, sequence (P07766 23-126 limits assumed): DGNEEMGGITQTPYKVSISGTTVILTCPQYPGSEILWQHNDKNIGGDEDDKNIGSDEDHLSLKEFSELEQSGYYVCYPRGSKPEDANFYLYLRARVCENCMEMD
With B1, the “ratio of amounts bound (vs GLS3000)” value worked out at 0.3. Turning to B2, the “ratio of amounts bound (vs GLS3000)” value was 0.65. Consider B3, for which the “ratio of amounts bound (vs GLS3000)” value was found to be 0.21.

For the molecule B4, the “ratio of amounts bound (vs GLS3000)” value was 0.78. The result for B5 reads 0.23. For the molecule B6, the “ratio of amounts bound (vs GLS3000)” value was found to be 0.65. For the molecule B7, the “ratio of amounts bound (vs GLS3000)” value is 0.89.

As for B8, the “ratio of amounts bound (vs GLS3000)” value worked out at 1.02. With B9 the figure was 0.31; with B10, 0.32; with B11, 0.2. As for B12, the “ratio of amounts bound (vs GLS3000)” value worked out at 0.59. With B13 the figure was 0.64; with B14, 0.25. Take B15: the “ratio of amounts bound (vs GLS3000)” value was 0.29. Take B16: the “ratio of amounts bound (vs GLS3000)” value was 0.22.

As to B17, the “ratio of amounts bound (vs GLS3000)” value was found to be 0.35. The result for B18 reads 1.06; that for B19, 0.85; that for B20, 0.23. Take B21: the “ratio of amounts bound (vs GLS3000)” value came out at 0.22. With B22 the figure was 0.24; with B23, 0.16; with B24, 0.39. B25: the “ratio of amounts bound (vs GLS3000)” value was 0.3.

Take B26: the “ratio of amounts bound (vs GLS3000)” value came out at 0.24. Regarding B27, the “ratio of amounts bound (vs GLS3000)” value amounted to 2.17.

As for B28, the “ratio of amounts bound (vs GLS3000)” value was 0.59. As for B29, the “ratio of amounts bound (vs GLS3000)” value was 0.25. With B30 the figure was 0.27. The result for B31 reads 0.34.
